Test results taken from the supplement of paper PMC9732359.
± gives the uncertainty stated by the source.

Assay: protein stability index of a GFP-peptide fusion (yeast GPS) (PSI 1-4); higher = more stable; sorted into four equal gates, so the index is relative within each strain
Summary of the method: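 Tiled 17-residue yeast protein peptides were fused downstream of GFP in a plasmid that also expresses Cherry, and the pooled library was carried in yeast. Mid-log cultures in leucine-free medium were sorted into four equal gates by GFP/Cherry fluorescence ratio, and plasmids from each gate were PCR-amplified and Illumina-sequenced, with reads assigned to strains by barcodes. The protein stability index for each peptide was each gate's read frequency times its gate number, summed.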

Sequence: GAQFSRSYDLTRHQNTI [RPN4]
- protein stability index (doa10∆): 1.16 ± 0.12
- protein stability index (pdr5∆): 1.67 ± 0.11
- protein stability index (san1∆): 1.85 ± 0.18
- protein stability index (ubr1∆): 2.53 ± 0.099

Sequence: GATKIVREHYLRSDIPC [DIS3]
- protein stability index (doa10∆): 2.67 ± 0.069
- protein stability index (pdr5∆): 2.63 ± 0.067
- protein stability index (san1∆): 2.1 ± 0.093
- protein stability index (ubr1∆): 2.43 ± 0.054

Sequence: GCENPADVFRRCLVAVI [SRP72]
- protein stability index (doa10∆): 1.93 ± 0.055
- protein stability index (pdr5∆): 1.48 ± 0.048
- protein stability index (san1∆): 2.29 ± 0.088
- protein stability index (ubr1∆): 1.98 ± 0.077

Sequence: GCLIKNLPRTKAKSVVN [RMP1]
- protein stability index (doa10∆): 2 ± 0.11
- protein stability index (pdr5∆): 2.52 ± 0.2
- protein stability index (san1∆): 1.92 ± 0.17
- protein stability index (ubr1∆): 2.13 ± 0.12

Sequence: GCLNFVDENDEVLLAGF [RPS23A]
- protein stability index (doa10∆): 1.3 ± 0.083
- protein stability index (pdr5∆): 1.53 ± 0.074
- protein stability index (san1∆): 1.5 ± 0.095
- protein stability index (ubr1∆): 1.27 ± 0.068

Sequence: GDANNRWDKEEYQSLMS [SMC1]
- protein stability index (doa10∆): 3.36 ± 0.21
- protein stability index (pdr5∆): 3.03 ± 0.29
- protein stability index (san1∆): 3.05 ± 0.28
- protein stability index (ubr1∆): 3.21 ± 0.073

Sequence: GDDEATEIISTLSNGLI [BRR2]
- protein stability index (doa10∆): 3.32 ± 0.099
- protein stability index (pdr5∆): 3.1 ± 0.13
- protein stability index (san1∆): 3.42 ± 0.096
- protein stability index (ubr1∆): 3.11 ± 0.21

Sequence: GDFGGWFCPCHGSHYDI [RIP1]
- protein stability index (doa10∆): 2.87 ± 0.15
- protein stability index (pdr5∆): 3.11 ± 0.078
- protein stability index (san1∆): 3 ± 0.058
- protein stability index (ubr1∆): 3.18 ± 0.082

Sequence: GDKEATAPLIQRKNKKN [RPN8]
- protein stability index (doa10∆): 3.22 ± 0.15
- protein stability index (pdr5∆): 3.42 ± 0.12
- protein stability index (san1∆): 3.18 ± 0.088
- protein stability index (ubr1∆): 3.15 ± 0.18

Sequence: GDPALVYKFMSLAKSSA [ECM29]
- protein stability index (doa10∆): 3.22 ± 0.11
- protein stability index (pdr5∆): 2.77 ± 0.08
- protein stability index (san1∆): 2.54 ± 0.089
- protein stability index (ubr1∆): 3.09 ± 0.054

Sequence: GDYGEEEDADQEESFSL [SRB8]
- protein stability index (doa10∆): 3.76 ± 0.28
- protein stability index (pdr5∆): 3.63 ± 0.17

Sequence: GDYGSAKCNSLLQLKYF [POP5]
- protein stability index (doa10∆): 2.31 ± 0.049
- protein stability index (pdr5∆): 2.24 ± 0.056
- protein stability index (san1∆): 2.23 ± 0.067
- protein stability index (ubr1∆): 2.59 ± 0.071

Sequence: GEAEAEKEEEEAKEESD [RPP1A]
- protein stability index (doa10∆): 2.13 ± 0.22
- protein stability index (pdr5∆): 3.51 ± 0.15
- protein stability index (san1∆): 2.54 ± 0.16
- protein stability index (ubr1∆): 3.52 ± 0.14

Sequence: GEICKNYELEKIADNIS [YDL116W/NUP84]
- protein stability index (doa10∆): 3.13 ± 0.098
- protein stability index (pdr5∆): 3.12 ± 0.084
- protein stability index (san1∆): 2.96 ± 0.061
- protein stability index (ubr1∆): 3.09 ± 0.061

Sequence: GELGEIRALQPKLKEGA [YIL149C/MLP2]
- protein stability index (doa10∆): 3.15 ± 0.11
- protein stability index (pdr5∆): 3.34 ± 0.19
- protein stability index (san1∆): 2.81 ± 0.15
- protein stability index (ubr1∆): 3.36 ± 0.093

Sequence: GEMVGVLAAQSIGEPAT [RPO21]
- protein stability index (doa10∆): 2.36 ± 0.087
- protein stability index (pdr5∆): 2.55 ± 0.073
- protein stability index (san1∆): 2.38 ± 0.066
- protein stability index (ubr1∆): 2.58 ± 0.088

Sequence: GENAAEKPDNSNHNNLN [SNF2]
- protein stability index (doa10∆): 3.01 ± 0.068
- protein stability index (pdr5∆): 3.25 ± 0.064
- protein stability index (san1∆): 3.27 ± 0.05
- protein stability index (ubr1∆): 3.21 ± 0.035

Sequence: GENDDDTLDGDLMDDMS [RPN3]
- protein stability index (doa10∆): 2.73 ± 0.17
- protein stability index (pdr5∆): 2.7 ± 0.075
- protein stability index (san1∆): 2.11 ± 0.12
- protein stability index (ubr1∆): 2.15 ± 0.1

Sequence: GENNINFQKASATLDGC [BRN1]
- protein stability index (doa10∆): 2.94 ± 0.23
- protein stability index (pdr5∆): 3.3 ± 0.21
- protein stability index (san1∆): 3.12 ± 0.25

Sequence: GEVVYLRKQKDSSTTSS [ITC1]
- protein stability index (doa10∆): 1.79 ± 0.073
- protein stability index (pdr5∆): 1.73 ± 0.08
- protein stability index (san1∆): 1.48 ± 0.14
- protein stability index (ubr1∆): 2.23 ± 0.081

Sequence: GGADQVTRTQQWSMVAQ [SWI1]
- protein stability index (doa10∆): 3.15 ± 0.077
- protein stability index (pdr5∆): 3.31 ± 0.075
- protein stability index (san1∆): 3.03 ± 0.063
- protein stability index (ubr1∆): 3.07 ± 0.052

Sequence: GGKSVGFGLVYNSVAEA [RPS24A]
- protein stability index (doa10∆): 3.11 ± 0.052
- protein stability index (pdr5∆): 3.29 ± 0.05
- protein stability index (san1∆): 3.15 ± 0.035
- protein stability index (ubr1∆): 2.84 ± 0.054

Sequence: GGLKNGVLYQGNIQISE [DIS3]
- protein stability index (doa10∆): 3.25 ± 0.098
- protein stability index (pdr5∆): 3.27 ± 0.085
- protein stability index (san1∆): 2.9 ± 0.072
- protein stability index (ubr1∆): 3.17 ± 0.065

Sequence: GGQIAHILFQNNPDMMI [ROX3]
- protein stability index (doa10∆): 2.54 ± 0.041
- protein stability index (pdr5∆): 2.63 ± 0.046
- protein stability index (san1∆): 2.59 ± 0.052
- protein stability index (ubr1∆): 2.97 ± 0.046

Sequence: GGSATARHKKKVENLDY [YML031W/NDC1]
- protein stability index (doa10∆): 3.4 ± 0.14
- protein stability index (pdr5∆): 3.38 ± 0.14
- protein stability index (san1∆): 3.06 ± 0.12
- protein stability index (ubr1∆): 3.62 ± 0.29

Sequence: GGTNEDDFTDAIQFVKE [YCS4]
- protein stability index (doa10∆): 2.35 ± 0.14
- protein stability index (pdr5∆): 2.6 ± 0.15
- protein stability index (san1∆): 3.39 ± 0.07
- protein stability index (ubr1∆): 3.69 ± 0.19

Sequence: GHEELKRRIEEEQEKIN [ISW2]
- protein stability index (doa10∆): 3.36 ± 0.082
- protein stability index (pdr5∆): 3.47 ± 0.086
- protein stability index (san1∆): 3.13 ± 0.062
- protein stability index (ubr1∆): 3.35 ± 0.055

Sequence: GHIPWHILAVKKMMNTL [SSN2]
- protein stability index (doa10∆): 2.45 ± 0.065
- protein stability index (pdr5∆): 2.85 ± 0.098
- protein stability index (san1∆): 2.74 ± 0.1
- protein stability index (ubr1∆): 1.1 ± 0.16

Sequence: GIEHFDIPPPAIMKPYY [RPO31]
- protein stability index (doa10∆): 2.69 ± 0.15
- protein stability index (pdr5∆): 2.92 ± 0.084
- protein stability index (san1∆): 3.34 ± 0.13
- protein stability index (ubr1∆): 2.91 ± 0.099

Sequence: GIFLHGKIPTLKISLIQ [PRP8]
- protein stability index (doa10∆): 2.26 ± 0.042
- protein stability index (pdr5∆): 2.03 ± 0.035
- protein stability index (san1∆): 1.79 ± 0.053
- protein stability index (ubr1∆): 1.78 ± 0.029

Sequence: GIRAPKGALMYGPPGTG [RPT5]
- protein stability index (doa10∆): 2.86 ± 0.14
- protein stability index (ubr1∆): 1.32 ± 0.11

Sequence: GISDDENDEEDIYMHDV [RRP4]
- protein stability index (doa10∆): 3.33 ± 0.13
- protein stability index (pdr5∆): 3.31 ± 0.14
- protein stability index (san1∆): 2.99 ± 0.12
- protein stability index (ubr1∆): 3.46 ± 0.12

Sequence: GISDMCRLFFTELASKD [YCS4]
- protein stability index (doa10∆): 2.37 ± 0.085
- protein stability index (pdr5∆): 2.4 ± 0.087
- protein stability index (san1∆): 2.18 ± 0.1
- protein stability index (ubr1∆): 2.61 ± 0.078

Sequence: GISRDIKALQDSLFKDV [YML103C/NUP188]
- protein stability index (doa10∆): 2.19 ± 0.077
- protein stability index (pdr5∆): 1.99 ± 0.063
- protein stability index (san1∆): 2.07 ± 0.089
- protein stability index (ubr1∆): 1.77 ± 0.042

Sequence: GKHNLTIWCVCDSYLDA [BRR2]
- protein stability index (doa10∆): 2.04 ± 0.059
- protein stability index (pdr5∆): 2.26 ± 0.083
- protein stability index (san1∆): 2.73 ± 0.093
- protein stability index (ubr1∆): 2.31 ± 0.045

Sequence: GKICLILTRLNGILPDD [SSN2]
- protein stability index (doa10∆): 3.12 ± 0.21
- protein stability index (ubr1∆): 3.5 ± 0.15

Sequence: GKILLKGDNITLITSAD [SME1]
- protein stability index (doa10∆): 2.62 ± 0.092
- protein stability index (pdr5∆): 3.23 ± 0.1
- protein stability index (san1∆): 2.77 ± 0.092
- protein stability index (ubr1∆): 3.2 ± 0.053

Sequence: GKIVGFDEFMNVVIDEA [SME1]
- protein stability index (doa10∆): 3.26 ± 0.063
- protein stability index (pdr5∆): 3.33 ± 0.064
- protein stability index (san1∆): 3.36 ± 0.056
- protein stability index (ubr1∆): 3.39 ± 0.05

Sequence: GKIVSQRGKWNLKYLDN [RGR1]
- protein stability index (doa10∆): 2.28 ± 0.074
- protein stability index (pdr5∆): 2.64 ± 0.068
- protein stability index (san1∆): 2.37 ± 0.091
- protein stability index (ubr1∆): 2.17 ± 0.06

Sequence: GKKSSSSTKDYLTPPHE [RET1]
- protein stability index (doa10∆): 3.72 ± 0.27
- protein stability index (san1∆): 3.52 ± 0.22
- protein stability index (ubr1∆): 2.85 ± 0.18

Sequence: GKLWKDVKARIAAGDGD [QCR9]
- protein stability index (doa10∆): 2.3 ± 0.11
- protein stability index (pdr5∆): 2.58 ± 0.16
- protein stability index (san1∆): 2.17 ± 0.07
- protein stability index (ubr1∆): 2.37 ± 0.098

Sequence: GKMNNEVSTSTSMTGDA [SWI3]
- protein stability index (doa10∆): 3.49 ± 0.076
- protein stability index (pdr5∆): 3.3 ± 0.069
- protein stability index (san1∆): 3.2 ± 0.054
- protein stability index (ubr1∆): 3.15 ± 0.053

Sequence: GKQAIGAIAYNQFKRID [RET1]
- protein stability index (doa10∆): 2.27 ± 0.2
- protein stability index (ubr1∆): 2.28 ± 0.14

Sequence: GKSEKLSLLLVEDKIPL [SKI6]
- protein stability index (doa10∆): 2.45 ± 0.11
- protein stability index (pdr5∆): 2.79 ± 0.095
- protein stability index (san1∆): 3.23 ± 0.056
- protein stability index (ubr1∆): 3.27 ± 0.12

Sequence: GLALQLFKKLKEENDEG [RPN2]
- protein stability index (doa10∆): 3.27 ± 0.12
- protein stability index (pdr5∆): 3.28 ± 0.12
- protein stability index (san1∆): 2.96 ± 0.1
- protein stability index (ubr1∆): 3.41 ± 0.096

Sequence: GLAPDARVLSNYLRQQC [PRE5]
- protein stability index (doa10∆): 2.72 ± 0.19
- protein stability index (pdr5∆): 2.11 ± 0.21
- protein stability index (ubr1∆): 1.47 ± 0.28

Sequence: GLARKFHNMLQTLYTGD [SSN3]
- protein stability index (doa10∆): 2.91 ± 0.24
- protein stability index (pdr5∆): 3.25 ± 0.1
- protein stability index (san1∆): 3.01 ± 0.077
- protein stability index (ubr1∆): 2.79 ± 0.16

Sequence: GLEVGPVVQVGIFIKIL [IRR1]
- protein stability index (doa10∆): 2.38 ± 0.068
- protein stability index (pdr5∆): 2.25 ± 0.056
- protein stability index (san1∆): 2.11 ± 0.15
- protein stability index (ubr1∆): 2.47 ± 0.059

Sequence: GLGVNRRILAAAAAAAA [SSN3]
- protein stability index (doa10∆): 1.44 ± 0.07
- protein stability index (pdr5∆): 1.52 ± 0.083
- protein stability index (san1∆): 1.08 ± 0.2
- protein stability index (ubr1∆): 1.95 ± 0.069

Sequence: GLRAVRKNRYVILQSDL [RPT3]
- protein stability index (doa10∆): 3.05 ± 0.081
- protein stability index (pdr5∆): 3.06 ± 0.1
- protein stability index (san1∆): 3.05 ± 0.08
- protein stability index (ubr1∆): 3.31 ± 0.14

Sequence: GLSIHPTQITQYTQRLS [SRP68]
- protein stability index (doa10∆): 2.09 ± 0.063
- protein stability index (pdr5∆): 1.93 ± 0.066
- protein stability index (san1∆): 1.92 ± 0.071
- protein stability index (ubr1∆): 2.13 ± 0.071
